According to US20090175796A1 (AGENSYS, published 2009):
Positions count from the first letter of the chain named. Values belong to the binder of their own block, whether it stands above or below them.

Biological target: T1, 24P4C12 protein (human) (human, UniProt Q53GD3 1-710)
T1 construct: whole, on cells; also called SLC44A4; CTL4
T1 sequence (looked up): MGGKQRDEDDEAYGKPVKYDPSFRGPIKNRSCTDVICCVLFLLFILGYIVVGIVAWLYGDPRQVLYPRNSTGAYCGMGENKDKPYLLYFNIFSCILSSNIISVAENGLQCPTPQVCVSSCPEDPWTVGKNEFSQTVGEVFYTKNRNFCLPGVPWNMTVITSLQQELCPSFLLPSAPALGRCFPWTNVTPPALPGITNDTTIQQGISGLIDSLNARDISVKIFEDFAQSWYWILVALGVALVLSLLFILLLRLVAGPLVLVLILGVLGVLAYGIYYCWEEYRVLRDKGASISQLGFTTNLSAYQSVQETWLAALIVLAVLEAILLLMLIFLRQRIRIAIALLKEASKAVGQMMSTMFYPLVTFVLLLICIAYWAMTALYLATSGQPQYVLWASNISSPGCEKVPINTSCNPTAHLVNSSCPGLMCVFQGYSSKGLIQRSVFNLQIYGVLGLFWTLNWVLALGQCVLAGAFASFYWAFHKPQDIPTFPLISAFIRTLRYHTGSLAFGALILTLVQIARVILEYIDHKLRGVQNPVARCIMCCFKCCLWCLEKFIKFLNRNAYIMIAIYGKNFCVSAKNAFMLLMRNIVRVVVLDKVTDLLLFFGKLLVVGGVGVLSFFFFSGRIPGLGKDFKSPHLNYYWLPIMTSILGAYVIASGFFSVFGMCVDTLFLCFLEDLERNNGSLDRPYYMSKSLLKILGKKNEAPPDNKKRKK
Experiment: FACS saturation equilibrium binding on LNCaP cells
Protocol: The affinity to LNCaP cells was determined by FACS using saturation equilibrium binding assay. […] At the end of incubation, the cells were washed with FACS Buffer and incubated with 100 ul of detection antibody (anti-hIgG-PE) for 45 minutes at 4° C., the cells were then washed with FACS Buffer, fixed with 2% Formaldehyde and analyzed using FACScan. FACS data were analyzed using CellQuest Pro software to acquire histogram and Mean Fluoresces Intensity (MFI) values of each point. The MFI values were used to calculate the binding affinity using non-linear regression using Prism4 software (Graphpad Software Inc. San Diego Calif.).

B2: Ha5-7acd10.1 (antibody, V domains shown)
VH: QVQLVESGGGVVQPGRSLRLSCAASGFTFSSYGMHWVRQAPGKGLEWVAVIWYDGSNKYYADSVKGRFTISRDNSKNTLYLQMNSLRAEDTAVYYCARDRYSGYDYYYYYGMDVWGQGTTVTVSS
VL: DIQMTQSPSSLSASVGDRVTITCRASQGIYNYLAWFQQKPGKAPKSLIYAASSLHSGVPSKFSGGGSGTDFTLTISSLQPEDFATYYCQQYTIYPFTFGPGTKVDIK
notes: copies: 2 + 2
Kd: 1.26 nM

B4: Ha5-7acd3.1 (antibody, V domains shown)
VH: B2 VH with A61T, Y107F
VL: B2 VL with K45R, G65S
Kd: 4.4 nM

B7: Ha5-3(1,4)7.1 (antibody, V domains shown)
VH: B2 VH with D105G
VL: B2 VL with G28D, Y30S, G65S
modifications: Labelled with Alexa Fluor 488 in the FIG. 14 experiment. The site is not stated and the letters do not carry it.
Kd: 5.5 nM

B9: Ha5-1(5)1 (antibody, V domains shown)
VH: QVQLVESGGGVVQPGRSLRLSCGASGFTFSSYGMHWVRQAPGKGLEWVAVMSYDGSKKYYTDSVKGRFTISRDNSKNTLYLQMNSLRVEDTAVYYCARDGGDYVRYYYYGMDVWGQGTTVTVSS
VL: DIQMTQSPSSLSASVGDRVTITCRARQGITYHLAWYQQRPGKVPKLLIYDTSSLQSGVPSRFSGSGSGTDFTLTISSLQPEDVATYYCQRFNSAPLTFGGGTKVEIK
notes: also called HA5-1(5)1.1
Kd: 4.1 nM

B12: Ha5-7acd2.1 (antibody, V domains shown)
VH: QVQLQESGPGLVKPSETLSLTCTVSGGSISSYYWSWIRQPPGKGLEWIGYIYYSGSTNYNPSLKSRVTISVDTSKNQFSLKLSSVTAADTAVYYCANTYYYGSGYGMDVWGQGTTVTVSS
VL: DIVMTQSPLSLPVTPGEPASISCRSSQSLLHSTGHNYLDWYLQKPGQSPQLLIYLGSIRASGVPDRFSGSGSGTDFTLKISRVEAEDVGVYYCMQALQTITFGQGTRLEIK
Kd: 1.95 nM

B15: Ha5-7be20.1 (antibody, V domains shown)
VH: QVQLQESGPGLVKPSETLSLTCTVSGGSISSYYWSWIRQPPGKGLEWIGYIYYSGSTNYNPSLKSRVTISVDTSKNQFSLKLSSVTAADTAVYYCARGYYYGSGSYGLDVWGQGTTVTVSS
VL: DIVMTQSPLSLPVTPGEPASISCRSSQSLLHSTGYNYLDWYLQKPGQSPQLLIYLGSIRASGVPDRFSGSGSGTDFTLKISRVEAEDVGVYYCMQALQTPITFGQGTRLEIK
Kd: 3.2 nM

B16: Ha5-7be31.1 (antibody, V domains shown)
VH: B15 VH with S103A, L108M
VL: DIVMTQSPLSLPVTPGEPASISCRSSQSLLHSTGFNYLDWYLQKPGQSPQLLIYLGSIRASGVPDRFSGSGSGTDFTLKISRVETEDVGVYYCMQTLQTPITFGQGTRLEIK
notes: copies: 2 + 2
Kd: 4.15 nM

More lines, in order of falling Kd, values ahead:

Kd: 3.4 nM
B3: Ha5-11b1.1 (antibody, V domains shown)
VH: B2 VH with Y32H, R100Q, Y106L
VL: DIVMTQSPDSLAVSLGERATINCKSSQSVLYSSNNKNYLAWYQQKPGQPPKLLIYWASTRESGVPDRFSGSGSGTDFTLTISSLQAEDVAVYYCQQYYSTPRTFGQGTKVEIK

Kd: 2.75 nM
B10: Ha5-1(5)2.1 (antibody, V domains shown)
VH: B9 VH with G23A, Y59F, V88A, Y107H
VL: DIQMTQSPSTLSASIGDRVTITCRASQGISYYLAWYQQKPGKIPKLLIYDTSSLQSGVPSRFSGSRSGTDLSLTISSLQPEDVATYYCQRYDSAPLTFGGGTKVEIK

Kd: 1.85 nM
B11: Ha5-7acd7.1.1 (antibody, V domains shown)
VH: QVQLQESGPGLVKPSETLSLTCTVSGGSVSSGGYYWSWIRQPPGKGLEWIGYIYYSGGTNYNPSLKSRVTISVDTSKNQFSLKLTSVTAADTAVYYCARESGYCTNVACFPDAFDIWGQGTMVTVSS
VL: B16 VL with I2V, L9F, T33N, Y37F, T85A, T96A, I101L, Q105G, L109V
notes: copies: 2 + 2

Kd: 1.1 nM
B8: Ha5-7acd20.1.1 (antibody, V domains shown)
VH: B2 VH with S56R, A61V, Y104S
VL: B2 VL with H55Q, G65S, D70V, I93V, I106F

Kd: 0.99 nM
B5: Ha5-7acd4.1 (antibody, V domains shown)
VH: B2 VH
VL: B2 VL with G28V, A50G, G65S, D70E, T97S

Kd: 0.7 nM
B6: Ha5-7acd16.1 (antibody, V domains shown)
VH: B2 VH with Y32H, R100A
VL: B2 VL with N31T, A50G, H55Q, G65S, S76T, T97S
notes: also called HA5-acd16.1; copies: 2 + 2

Kd: 0.45 nM
B14: Ha5-3(3,5)37.1 (antibody, V domains shown)
VH: QVQLQESGPGLVKPSETLSLTCTVSGGSISSYYWSWIRQPPGKGLEWIGYIYYSGSTNYNPSLKSRVTISVDTSKNQFSLKLNSVTAADTAVYYCARGYYYGSESPYGMDVWGQGTTVTVSS
VL: DIVMTQSPLSLPVTPGEPASISCRSSQSLLHSNGHNYLDWYLQKPGQSPHLLIYLGSNRDSGVPDRFSGSGSGTDFTLKISRVEAEDVGVYYCMQALQIPCSFGQGTKLEIK

Kd: 0.19 nM
B13: Ha5-7acd19.1 (antibody, V domains shown)
VH: B12 VH with Y50F, S54T
VL: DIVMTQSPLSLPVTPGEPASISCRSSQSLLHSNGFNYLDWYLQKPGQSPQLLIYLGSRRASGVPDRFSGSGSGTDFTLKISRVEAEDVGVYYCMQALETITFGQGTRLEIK
modifications: Labelled with Alexa Fluor 488 dye in the FIG. 14 experiment; the site is not stated and the letters do not carry it.
notes: copies: 2 + 2

Kd: 0.07 nM
B1: Ha5-8ac4.1 (antibody, V domains shown)
VH: QVQLQESGPGLVKPSETLSLTCTVSGGSISRYYWSWIRQPAGKGLERIGRIYTSGSTDYNPSLKSRVTMSVDTSKNQFSLKLRSVTAADTAVYYCARDLYSNGYWYFDLWGRGTLVTVSS
VL: QSVLTQPPSVSGAPGQRVTISCTGSSSNIGAGYDVHWYQQLPGTAPKLLIYGNSNRPSGVPDRFSGSKSGTSASLAITGLQAEDEADYYCQSYDSSLSGVVFGGGTKLTVL
notes: also called Ha5-8acd4.1
